We go through three molecules from PMC3162126.

The target of data set [1] is T1, AidB (Escherichia coli, UniProt P33224 1-541).
T1 sequence: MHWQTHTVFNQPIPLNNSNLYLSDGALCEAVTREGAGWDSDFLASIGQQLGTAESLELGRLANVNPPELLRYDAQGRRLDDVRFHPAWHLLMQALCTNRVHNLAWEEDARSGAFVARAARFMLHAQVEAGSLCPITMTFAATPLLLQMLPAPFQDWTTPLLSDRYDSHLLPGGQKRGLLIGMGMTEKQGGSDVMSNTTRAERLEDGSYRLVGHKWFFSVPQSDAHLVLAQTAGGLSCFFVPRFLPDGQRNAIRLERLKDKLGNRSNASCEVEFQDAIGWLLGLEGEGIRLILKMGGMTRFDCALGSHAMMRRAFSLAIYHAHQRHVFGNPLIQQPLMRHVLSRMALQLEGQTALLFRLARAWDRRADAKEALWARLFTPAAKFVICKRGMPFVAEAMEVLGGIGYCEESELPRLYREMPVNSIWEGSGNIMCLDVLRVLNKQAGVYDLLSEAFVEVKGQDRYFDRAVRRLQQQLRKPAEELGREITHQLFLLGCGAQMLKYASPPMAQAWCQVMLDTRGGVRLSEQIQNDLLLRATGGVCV
The data set can be described thus: competition.

For data set [2], the target named is T1, AidB. Kind of data set: EMSA. A general note: A gel shift assay detects complexes by their altered migration in electrophoresis.
Data set [3] addresses T1, AidB. The data set can be described thus: competition. This is another data set of the same source.

B1: rrnB P1ΔUP (-UP), unlabelled competitor (dsDNA)
DNA 1: CCTCTTGTCAGGCCGGAATAACTCCCTATAAT
DNA 2: ATTATAGGGAGTTATTCCGGCCTGACAAGAGG
With B1, in the data set with AidB [1], the binding result is “no binding”.

B2: rrnB P1wt (+UP), biotinylated probe (dsDNA)
DNA 1: AGAAAATTATTTTAAATTTCCTCTTGTCAGGCCGGAATAACTCCCTATAAT
DNA 2: ATTATAGGGAGTTATTCCGGCCTGACAAGAGGAAATTTAAAATAATTTTCT
Regarding B2, the binding result in the data set with AidB [2] is given as “binds”.

B3: rrnB P1wt (+UP), unlabelled competitor (dsDNA)
DNA 1: AGAAAATTATTTTAAATTTCCTCTTGTCAGGCCGGAATAACTCCCTATAAT
DNA 2: ATTATAGGGAGTTATTCCGGCCTGACAAGAGGAAATTTAAAATAATTTTCT
Turning to B3, the binding result with AidB [3] is given as “binds”.
